According to patent US20170044230A1 (USTAV ORGANICKE CHEMIE A BIOCHEMIE AV CR, V.V.I., priority 2014, published 2017):
Non-standard residues stand in square brackets, D forms with d. Residues, ends and D or L forms follow the SMILES beside them. No end group written: not given here. *: point of attachment. 1Nal = N[C@@H](Cc1cccc2ccccc12)C(=O)O; Palmitoyl = CCCCCCCCCCCCCCCC(=O)*; Myristoyl = CCCCCCCCCCCCCC(=O)*; Decanoyl = CCCCCCCCCC(=O)*; Octanoyl = CCCCCCCC(=O)*; Dap = NC[C@H](N)C(=O)O; Sar = CNCC(=O)O

Experiments:
human GHS-R1a receptor = molecular target: T1, human GHS-R1a receptor (Homo sapiens, UniProt Q92847); assay: Competitive binding studies (displacement of 125I-ghrelin); conditions: for affinity for GHS-R1a compared with ghrelin: in words; for % of ghrelin binding: relative to ghrelin = 100
T1 construct: purchased Multispan, Hayward, Calif., USA; host or cells: HEK293T cells, isolated plasma membranes
T1 sequence (Q92847 whole entry): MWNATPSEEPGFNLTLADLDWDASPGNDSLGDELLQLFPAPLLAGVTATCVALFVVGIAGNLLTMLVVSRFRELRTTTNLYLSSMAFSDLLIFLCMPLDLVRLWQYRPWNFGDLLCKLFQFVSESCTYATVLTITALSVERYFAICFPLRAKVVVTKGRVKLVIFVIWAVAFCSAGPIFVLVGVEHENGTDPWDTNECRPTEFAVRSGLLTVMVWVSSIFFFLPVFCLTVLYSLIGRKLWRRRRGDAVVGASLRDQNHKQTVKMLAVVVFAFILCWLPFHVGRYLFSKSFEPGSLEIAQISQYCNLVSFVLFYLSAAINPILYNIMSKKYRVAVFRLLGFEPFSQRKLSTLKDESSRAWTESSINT
Description: Isolated plasma membranes from the HEK293T cells with transfected human GHS-R1a receptor (Multispan, Hayward, Calif., USA) were used. […] Experiments were carried out in duplicates at least three times. Competitive binding curves were plotted using GraphPad Prism Software (San Diego, Calif., USA) while comparing the best fit for single binding sites models.

fed C57BL/6 male mice = assay: Effect of SC administered ghrelin analogs on food intake; format: in vivo; conditions: for maximal effect at 5 mg/kg on food intake: SC 5 mg/kg, evaluated 480 min after administration; for ED50 (250 min after injection), effect on food intake: SC, fed mice
Description: All of the experiments followed the ethical guidelines for animal experiments and Czech Republic law 246/1992 and were approved by the committee for experiments with laboratory animals of the Academy of Sciences of the Czech Republic. Male C57BL/6 mice (Charles River, Germany) were housed at a temperature 22±2° C. under a daily cycle of 12/12 h light/dark (light from 6:00) with free access to water and a standard chow diet St-1 which contained […] of calories from protein, fat and carbohydrate, respectively, and its energy content was 3.4 kcal/g (Mlýn Kocanda, Praha, Czech Republic). Mice were placed into separate cages for one week before experiment, they had free access to water and food pellets. Closely before the experiment, the food pellets were removed from the cages. […] 15 min after the injection, mice were given preweighed food pellets. Food intake was monitored for 8-10 hours at 30-min intervals. Mice had free access to water during the experiment. Experiments were performed at least twice for each tested compound, each experimental group had at least 5 mice.
Data from food intake experiments were analyzed by one-way ANOVA followed by Dunnett's post-hoc test using GraphPad Prism Software (San Diego, Calif., USA), P<0.05 was considered statistically significant. ED50 values were calculated using GraphPad Prism Software as the dose of the tested compound required to elicit half-maximal effect at 250 min after administration of the corresponding compound.
Food intake was monitored for […] after administration of the compounds. ED50 values were determined 250 min after administration. Maximal effect on food intake was evaluated […] after administration of the compounds at a dose of 5 mg/kg of body weight. NT—not tested.

[1] = molecular target: T2, human GHS-R1a receptor (growth hormone secretagogue receptor 1a) (human, UniProt Q92847 1-366); assay: competitive displacement of 125I-ghrelin, membranes of HEK293T cells with transfected human GHS-R1a
T2 construct: whole, on cells; Functional assays: HEK-293T cells transiently transfected with human GHS-R1a; also called ghrelin receptor
T2 sequence (Q92847 whole entry): as above
Description: Competitive binding studies were performed according to the principles of Motulsky and Neubig (Motulsky & Neubig, 2002). Isolated plasma membranes from the HEK293T cells with transfected human GHS-R1a receptor (Multispan, Hayward, Calif., USA) were used. […] The binding reaction was stopped by the addition of ice-cold washing buffer (20 mM Tris pH 7.4, 10 mM MgCl₂, 2.5 mM EDTA, 0.015% Triton X-100) followed by rapid filtration over GF/C filters (Whatman, Clifton, N.J., USA) presoaked with 0.5% PEI in binding buffer using a Brandel cell harvester (Brandel Inc., Gaithersburg, Md., USA). Bound radioactivity was determined by gamma counting (Wizard 1470 Automatic Gamma Counter; PerkinElmer Life and Analytical Sciences, Waltham, Mass.).

[2] = molecular target: T2, human GHS-R1a receptor (growth hormone …); assay: cell-based or functional assay

Row | Molecule | % of ghrelin binding [1] [%] | Ki [1] [nM] | IP1 - EC50 [nM] (inositol phosphate accumulation, IP-One HTRF) [2] | also measured
1 | CCCCCCCCCC(=O)NC[C@H](NC(=O)[C@H](CO)NC(=O)CNC)C(=O)N[C@@H](Cc1ccccc1)C(=O)N[C@@H](CC(C)C)C(=O)N[C@@H](CO)C(=O)N1CCC[C@H]1C(=O)N[C@@H](CCC(=O)O)C(=O)N[C@@H](Cc1c[nH]cn1)C(=O)N[C@@H](CCC(N)=O)C(=O)N[C@@H](CCCCN)C(=O)N[C@@H](C)C(=O)N[C@@H](CCC(N)=O)C(=O)N[C@@H](CCC(N)=O)C(=O)N[C@@H](CCCNC(=N)N)C(=O)N[C@@H](CCCCN)C(=O)N[C@@H](CCC(=O)O)C(=O)N[C@@H](CO)C(=O)N[C@@H](CCCCN)C(=O)N[C@@H](CCCCN)C(=O)N1CCC[C@H]1C(=O)N1CCC[C@H]1C(=O)N[C@@H](C)C(=O)N[C@@H](CCCCN)C(=O)N[C@@H](CC(C)C)C(=O)N[C@@H](CCC(N)=O)C(=O)N1CCC[C@H]1C(=O)N[C@@H](CCCNC(=N)N)C(=O)O [Analog 1] | – | – | – | affinity for GHS-R1a compared with ghrelin (human GHS-R1a receptor): higher affinities for GHS-R1a than ghrelin; % of ghrelin binding (human GHS-R1a receptor): 183%; maximal effect at 5 mg/kg on food intake (fed C57BL/6 male mice): 218.8 % of Dpr^3ghr; ED50 (250 min after injection), effect on food intake (fed C57BL/6 male mice): 3.90 mg/kg
2 | CCCCCCCCCC(=O)NC[C@H](NC(=O)[C@H](CO)NC(=O)CNC)C(=O)N[C@@H](Cc1cccc2ccccc12)C(=O)N[C@@H](CC(C)C)C(=O)N[C@@H](CO)C(=O)N1CCC[C@H]1C(=O)N[C@@H](CCC(=O)O)C(=O)N[C@@H](Cc1c[nH]cn1)C(=O)N[C@@H](CCC(N)=O)C(=O)N[C@@H](CCCCN)C(=O)N[C@@H](C)C(=O)N[C@@H](CCC(N)=O)C(=O)N[C@@H](CCC(N)=O)C(=O)N[C@@H](CCCNC(=N)N)C(=O)N[C@@H](CCCCN)C(=O)N[C@@H](CCC(=O)O)C(=O)N[C@@H](CO)C(=O)N[C@@H](CCCCN)C(=O)N[C@@H](CCCCN)C(=O)N1CCC[C@H]1C(=O)N1CCC[C@H]1C(=O)N[C@@H](C)C(=O)N[C@@H](CCCCN)C(=O)N[C@@H](CC(C)C)C(=O)N[C@@H](CCC(N)=O)C(=O)N1CCC[C@H]1C(=O)N[C@@H](CCCNC(=N)N)C(=O)O [Analog 3] (H-[Sar]S[Dap](Decanoyl)[1Nal]LSPEHQKAQQRKESKKPPAKLQPR-OH; N-terminus and C-terminus assumed) | – | – | – | affinity for GHS-R1a compared with ghrelin (human GHS-R1a receptor): higher affinities for GHS-R1a than ghrelin; % of ghrelin binding (human GHS-R1a receptor): 176%; maximal effect at 5 mg/kg on food intake (fed C57BL/6 male mice): 220.3 % of Dpr^3ghr; ED50 (250 min after injection), effect on food intake (fed C57BL/6 male mice): 0.64 mg/kg
3 | XSXXLSPEHQKAQQRKESKKPPAKLQPR (sarcosine (Sar) at position 1; diaminopropionic acid N-myristoyl (Dpr-N-myr) at position 3; 1-naphtylalanine (1-Nal) at position 4, Synthetic ghrelin analog) [ghrelin analog no. 4, (Sar)S(Dpr-N-myr)(1-Nal)LSPEHQKAQQRKESKKPPAKLQPR] | 57 | 2.01 | 9.75 | Ca^2+ - EC50 [nM] (intracellular calcium mobilization, Fluo-4AM) [2]: 10.9 nM
4 | GSXFLSPEHQKAQQRKESKKPPAKLQPR (diaminopropionic acid (Dpr) bearing octanoyl at position 3, Synthetic ghrelin analog) [Dpr^3ghrelin] | 169 | 0.68 | 16.3 | –
5 | XSXFLSPEHQKAQQRKESKKPPAKLQPR (sarcosine (Sar) at position 1; diaminopropionic acid N-decanoyl (Dpr-N-dec) at position 3, Synthetic ghrelin analog) [ghrelin analog no. 1, (Sar)S(Dpr-N-dec)FLSPEHQKAQQRKESKKPPAKLQPR] | 183 | 0.63 | 12.6 | Ca^2+ - EC50 [nM] (intracellular calcium mobilization, Fluo-4AM) [2]: 9.66 nM
6 | XSXXLSPEHQKAQQRKESKKPPAKLQPR (sarcosine (Sar) at position 1; diaminopropionic acid N-decanoyl (Dpr-N-dec) at position 3; cyclohexylalanine (Cha) at position 4, Synthetic ghrelin analog) [ghrelin analog no. 5, (Sar)S(Dpr-N-dec)(Cha)LSPEHQKAQQRKESKKPPAKLQPR] | 110 | 1.04 | 3.28 | Ca^2+ - EC50 [nM] (intracellular calcium mobilization, Fluo-4AM) [2]: 10.6 nM
7 | GSS(Octanoyl)FLSPEHQKAQQRKESKKPPAKLQPR [Ghrelin] | 100 | – | – | –
8 | XSXFLSPEHQKAQQRKESKKPPAKLQPR (sarcosine (Sar) at position 1; diaminopropionic acid N-myristoyl (Dpr-N-myr) at position 3, Synthetic ghrelin analog; also called analog 2) [ghrelin analog no. 2, (Sar)S(Dpr-N-myr)FLSPEHQKAQQRKESKKPPAKLQPR] | 54 | 2.1 | 7.1 | Ca^2+ - EC50 [nM] (intracellular calcium mobilization, Fluo-4AM) [2]: 36.6 nM
9 | XSXXLSPEHQKAQQRKESKKPPAKLQPR (sarcosine (Sar) at position 1; diaminopropionic acid N-decanoyl (Dpr-N-dec) at position 3; 1-naphtylalanine (1-Nal) at position 4, Synthetic ghrelin analog) [ghrelin analog no. 3, (Sar)S(Dpr-N-dec)(1-Nal)LSPEHQKAQQRKESKKPPAKLQPR] | 176 | 0.65 | 2.08 | Ca^2+ - EC50 [nM] (intracellular calcium mobilization, Fluo-4AM) [2]: 18.6 nM
10 | XSXXLSPEHQKAQQRKESKKPPAKLQPR (sarcosine (Sar) at position 1; diaminopropionic acid N-myristoyl (Dpr-N-myr) at position 3; cyclohexylalanine (Cha) at position 4, Synthetic ghrelin analog) [ghrelin analog no. 6, (Sar)S(Dpr-N-myr)(Cha)LSPEHQKAQQRKESKKPPAKLQPR] | 18 | 6.41 | 3.08 | Ca^2+ - EC50 [nM] (intracellular calcium mobilization, Fluo-4AM) [2]: 11.4 nM

Further lines, with some results ahead:

Row | % of ghrelin binding [1] [%] | Ki [1] [nM] | IP1 - EC50 [nM] (inositol phosphate accumulation, IP-One HTRF) [2] | Molecule | also measured
11 | 6 | 20.8 | – | XSXXLSPEHQKAQQRKESKKPPAKLQPR (sarcosine (Sar) at position 1; diaminopropionic acid N-octanoyl (Dpr-N-oct) at position 3; cyclohexylalanine (Cha) at position 4; Lys 24 N-palmitoyl (K(N-palm)), Synthetic ghrelin analog) [ghrelin analog no. 8, (Sar)S(Dpr-N-oct)(Cha)LSPEHQKAQQRKESKKPPAK(N-palm)LQPR] | –
12 | 47 | 2.45 | – | XSXXLSPEHQKAQQRKESKKPPAKLQPR (not fully specified; sarcosine (Sar) at position 1; diaminopropionic acid N-octanoyl (Dpr-N-oct) at position 3; dichlorophenylalanine (PheCl2) at position 4, Synthetic ghrelin analog) [ghrelin analog no. 13, (Sar)S(Dpr-N-oct)(PheCl2)LSPEHQKAQQRKESKKPPAKLQPR] | –
13 | 139 | 0.83 | – | XSXFLSPEHQKAQQRKESKKPPAKLQPR (sarcosine (Sar) at position 1; diaminopropionic acid N-10-undecynoyl (Dpr-N-10-undecyn) at position 3, Synthetic ghrelin analog) [ghrelin analog no. 11, (Sar)S(Dpr-N-10-undecyn)FLSPEHQKAQQRKESKKPPAKLQPR] | –
14 | 30 | 3.71 | – | [Sar]S[Dap](Decanoyl)FLSPEHQKAQQRKES [ghrelin analog no. 17, (Sar)S(Dpr-N-dec)FLSPEHQKAQQRKES] | –
15 | 34 | 3.38 | – | [Sar]S[Dap](Myristoyl)FLSPEHQKAQQRKES [ghrelin analog no. 18, (Sar)S(Dpr-N-myr)FLSPEHQKAQQRKES] | –
16 | 19 | 6.09 | – | XSXFLSPEHQKAQQRKESKKPPAKLQPR (sarcosine (Sar) at position 1; diaminopropionic acid N-octanoyl (Dpr-N-oct) at position 3; Lys 24 N-palmitoyl (K(N-palm)), Synthetic ghrelin analog) [ghrelin analog no. 7, (Sar)S(Dpr-N-oct)FLSPEHQKAQQRKESKKPPAK(N-palm)LQPR] | –
17 | 19 | 5.99 | – | [Sar]S[Dap](Decanoyl)FLSPEHQKAQQRK(Palmitoyl)ES [ghrelin analog no. 15, (Sar)S(Dpr-N-dec)FLSPEHQKAQQRK(N-palm)ES] | –
18 | 7 | 16.8 | – | XSXXLSPEHQKAQQRKESKKPPAKLQPR (not fully specified; sarcosine (Sar) at position 1; diaminopropionic acid N-myristoyl (Dpr-N-myr) at position 3; dichlorophenylalanine (PheCl2) at position 4, Synthetic ghrelin analog; also called analog 14) [ghrelin analog no. 14, (Sar)S(Dpr-N-myr)(PheCl2)LSPEHQKAQQRKESKKPPAKLQPR] | –
19 | 24 | 4.71 | – | XSXXLSPEHQKAQQRKESKKPPAKLQPR (sarcosine (Sar) at position 1; diaminopropionic acid N-octanoyl (Dpr-N-oct) at position 3; tertbutylalanine (tBu) at position 4, Synthetic ghrelin analog) [ghrelin analog no. 10, (Sar)S(Dpr-N-oct)(tBu)LSPEHQKAQQRKESKKPPAKLQPR] | –
20 | 5 | 23.3 | – | XSXXLSPEHQKAQQRKESKKPPAKLQPR (not fully specified; sarcosine (Sar) at position 1; diaminopropionic acid N-octanoyl (Dpr-N-oct) at position 3; naphtylalanine (Nal) at position 4; Lys 24 N-palmitoyl (K(N-palm)), Synthetic ghrelin analog) [ghrelin analog no. 9, (Sar)S(Dpr-N-oct)(Nal)LSPEHQKAQQRKESKKPPAK(N-palm)LQPR] | –
21 | 76 | 1.51 | – | XSXFLSPEHQKAQQRKESKKPPAKLQPR (sarcosine (Sar) at position 1; diaminopropionic acid N-9-decenoyl (Dpr-N-9-decen) at position 3, Synthetic ghrelin analog) [ghrelin analog no. 12, (Sar)S(Dpr-N-9-decen)FLSPEHQKAQQRKESKKPPAKLQPR] | –
22 | 2 | 51 | – | [Sar]S[Dap](Myristoyl)FLSPEHQKAQQRK(Palmitoyl)ES [ghrelin analog no. 16, (Sar)S(Dpr-N-myr)FLSPEHQKAQQRK(N-palm)ES] | –
